Publication doi:10.1101/2020.08.13.249722

Target: …-Toyopearl (PTCH peptide, positive control)
Assay: equilibrium adsorption on peptide resin

## tandem WW domain of Yes-Associated Protein 1 (WW-YAP), soluble recombinant human protein (domain or fragment)
  percent of the incubated protein bound: > 73%
